This is an account of results in PMC9482095.

Data set [1] concerns the target T1, FOXO1 FKH wt (UniProt Q12778 151-265). Put plainly: EMSA. For orientation: Mobility shift assays separate free from complexed probe on a gel.
Data set [2] concerns the target T1, FOXO1 FKH wt. Nature of the data set: EMSA. This is another data set of the same source.

Read-outs that look alike come from different tables or passages of the source.

B1: dsIRE (dsDNA)
DNA 1: TAAGCTAGTGGTTTGTTTTGCTTGCTAGCAAT
DNA 2: ATTGCTAGCAAGCAAAACAAACCACTAGCTTA
B1: the dissociation constant Kd in data set [1] stood at 200 ± 70 nM.

B2: dsDBE2 (dsDNA)
DNA 1: TAAGCTAGTCTTGTTTACATTTTGCTAGCAAT
DNA 2: ATTGCTAGCAAAATGTAAACAAGACTAGCTTA
Molecule B2 showed a Kd in data set [2] of 90 nM.

For orientation: Kd means the constant that tells how readily two partners part at equilibrium.
